For the test, the target named is Biotinylated CyRPA (residues 29 to 362) with a C-terminal Avitag (P. falciparum, UniProt Q8IFM8 29-362, biotin (on the Avitag)). Put plainly: BLI. Background: BLI is a label-free optical method that tracks binding on a fibre tip over time.

B1: Rh5_(unproc), full-length PfRh5 (residues 26 to 526) (natural protein)
chain: ENAIKKTKNQENNLTLLPIKSTEEEKDDIKNGKDIKKEIDNDKENIKTNNAKDHSTYIKSYLNTNVNDGLKYLFIPSHNSFIKKYSVFNQINDGMLLNEKNDVKNNEDYKNVDYKNVNFLQYHFKELSNYNIANSIDILQEKEGHLDFVIIPHYTFLDYYKHLSYNSIYHKSSTYGKCIAVDAFIKKINEAYDKVKSKCNDIKNDLIATIKKLEHPYDINNKNDDSYRYDISEEIDDKSEETDDETEEVEDSIQDTDSNHAPSNKKKNDLMNRAFKKMMDEYNTKKKKLIKCIKNHENDFNKICMDMKNYGTNLFEQLSCYNNNFCNTNGIRYHYDEYIHKLILSVKSKNLNKDLSDMTNILQQSELLLTNLNKKMGSYIYIDTIKFIHKEMKHIFNRIEYHTKIINDKTKIIQDKIKLNIWRTFQKDELLKRILDMSNEYSLFITSDHLRQMLYNTFYSKEKHLNNIFHHLIYVLQMKFNDVPIKMEYFQTYKKNKPLTQ
For the molecule B1, the Kd was determined as 127 nM.

B2: Rh5_(proc), processed form of PfRh5 lacking the N-terminal domain (residues 145-526) (domain or fragment)
chain: LQYHFKELSNYNIANSIDILQEKEGHLDFVIIPHYTFLDYYKHLSYNSIYHKSSTYGKCIAVDAFIKKINEAYDKVKSKCNDIKNDLIATIKKLEHPYDINNKNDDSYRYDISEEIDDKSEETDDETEEVEDSIQDTDSNHAPSNKKKNDLMNRAFKKMMDEYNTKKKKLIKCIKNHENDFNKICMDMKNYGTNLFEQLSCYNNNFCNTNGIRYHYDEYIHKLILSVKSKNLNKDLSDMTNILQQSELLLTNLNKKMGSYIYIDTIKFIHKEMKHIFNRIEYHTKIINDKTKIIQDKIKLNIWRTFQKDELLKRILDMSNEYSLFITSDHLRQMLYNTFYSKEKHLNNIFHHLIYVLQMKFNDVPIKMEYFQTYKKNKPLTQ
With B2, the Kd turned out to be 179 nM.

The Kd is a measure of binding affinity in units of concentration. Lower therefore signals a tighter complex.

The values are drawn from PMC10113190 (2023).
